{
  "source": "patent US20220105163A1",
  "molecular_target": "Recombinant human IL-6 (human) (UniProt P05231)",
  "sequence (P05231 30-212 limits assumed)": "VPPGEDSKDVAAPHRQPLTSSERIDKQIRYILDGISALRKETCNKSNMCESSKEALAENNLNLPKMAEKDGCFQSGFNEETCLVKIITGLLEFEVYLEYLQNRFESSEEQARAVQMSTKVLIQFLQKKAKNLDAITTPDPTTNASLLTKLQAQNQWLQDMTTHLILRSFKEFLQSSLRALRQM",
  "assay": "cell-based or functional assay",
  "data": [
    {"binder": "ALD518 (antibody, INN chains, looked up, V domains shown) VH: EVQLVESGGGLVQPGGSLRLSCAASGFSLSNYYVTWVRQAPGKGLEWVGIIYGSDETAYATSAIGRFTISRDNSKNTLYLQMNSLRAEDTAVYYCARDDSSDWDAKFNLWGQGTLVTVSS VL: AIQMTQSPSSLSASVGDRVTITCQASQSINNELSWYQQKPGKAPKLLIYRASTLASGVPSRFSGSGSGTDFTLTISSLQPDDFATYYCQQGYSLRNIDNAFGGGTKVEIK", "values": [
      {"measurement": "IC50 (µg/mL), IL-6 induced TF-1 proliferation", "result": 0.629, "unit": "µg/mL"}
    ]}
  ]
}
